Measured values reported in patent US20260200999A1, “SYNTHETIC TRANSCRIPTION FACTORS” (ETH ZURICH, priority 2022, published 2026).

Test system: Response Element-driven mCerulean reporter (MTERF1 binding sites, SEQ ID NO: 42)
Test: mCerulean reporter co-transfection with HumTAP constructs in HEK293 cells (flow cytometry)
Type: cell-based, human
Details: HEK293; for reporter gene (mCerulean) expression / reporter (mCerulean) expression / mCerulean expression, fold lower than the benchmark RelA430-551 TAD: TAD fused to MTERF158-399; for reporter gene (mCerulean) expression: 5xRE reporter without spacer (SEQ ID NO: 48), compared with RelA430-551 (Example 1, FIG. 4A); for reporter (mCerulean) expression: pEF1a-driven, Example 4, FIG. 9B, C; for mCerulean expression, fold lower than the benchmark RelA430-551 TAD: FIG. 9B; for output expression / transcriptional activation: N-terminally truncated MTERF1 fused to RelA430-551, reporter SEQ ID NO: 48 (Example 1, FIG. 5B); for reporter expression, times less than with MTERF158-399: truncated MTERF1 DBD; for fluorescence relative to only one copy of the respective TAD: Example 1, FIG. 4A
From the text: To construct a promoter with Response Elements/MTERF1 binding sites driving the gene of interest, the inventors placed MTERF1 binding sites (SEQ ID NO: 42) upstream a minimal TATA box (SEQ ID NO: 103). An mCerulean fluorescent reporter representing the gene of interest (Gol) was placed downstream of the TATA box. Each of these is referred to as a reporter construct. Five different reporter constructs were made comprising respectively 3, 5, 7, 9, and 11 MTERF1 binding sites 6 base pairs apart upstream of the TATA box (FIG. 1A; SEQ ID NO: 41, 44, 45, 46 and 47, respectively). They were co-transfected with the MTF construct into Hela cells. […] Using flow cytometry, relative mCerulean levels were measured and calculated by normalization to the transfection control in Hela cells (FIG. 1C). […] Next, reporter plasmids with varying spacer lengths (0, 6 bp and 10 bp; SEQ ID NO: 48, 44 and 49, respectively) (FIG. 1F) between a fixed number of REs (i.e. 5 REs/MTERF1 binding sites) were transfected with the MTF construct. […] This was confirmed using flow cytometry (FIG. 1H). […]
With the goal to engineer stronger and possibly shorter HumTAPs, the inventors fused the MTERF158-399 peptide (SEQ ID NO: 1) to a variety of transactivation domains and transfected HEK293 cells with those constructs and the reporter construct comprising 5×RE/MTERF1 binding sites without a spacer between them (SEQ ID NO: 48).
First, MTERF158-399 (SEQ ID NO: 1) was fused with different subsequences of RelA. RelA361-551 (SEQ ID NO: 27) corresponds to the sequence used in the construction of the bacterial-derived synthetic TF PIT2 [19], while RelA342-551 (SEQ ID NO: 29) contains all annotated transactivation domains according to domain annotation under Uniprot Q04206 (https://www.uniprot.org/uniprotkb/Q04206/entry). […] We also fused MTERF158-399 (SEQ ID NO: 1) to a set of transactivation domains previously found to be strong activators with a small genetic footprint (FIG. 4B).
To further decrease the DNA footprint of a HumTAP, the inventors investigated to what degree the DNA binding domain may be reduced. To this end, the inventors created 3 versions of MTERF1 subsequences fused to RelA430-551 (SEQ ID NO: 3). MTERF173-399 (SEQ ID NO: 7), MTERF1104-399 (SEQ ID NO: 9), and MTERF1135-399 (SEQ ID NO: 11) are subunits of MTERF1 without its mitochondrial transfer peptide (MTERF11-57; SEQ ID NO: 37) that either lack only the first […] N-terminal amino acids (MTERF58-72; SEQ ID NO: 39) or additionally, also lack the first (MTERF173-98; SEQ ID NO: 104) or both the first and second (MTERF1104-134; SEQ ID NO: 106) mterf motifs (FIG. 5A). The removal of N-terminal domains reduces the genetic footprint of a HumTAP (FIG. 5B). These constructs were co-transfected into HEK293 cells with the reporter construct containing 5×RE without a spacer in its promoter (SEQ ID NO: 48).
In addition to RelA430-551 (termed “v1”), the inventors tested three alternative subsequences: v2) RelA342-551 (SEQ ID NO: 29), which contains all transactivation domains as annotated on UniProt Q04206; v3) RelA361-551 (SEQ ID NO: 27), which is identical to the peptide used in the construction of PIT2 [2]; and v4) RelA521-551 (SEQ ID NO: 31), which constitutes only the transactivation domain 1 (TA1). The protein domains WW (SEQ ID NO: 21), KRAB of ZNF473 (SEQ ID NO: 23), Nuc-rec-co-Act (SEQ ID NO: 25), LMSTEN (SEQ ID NO: 19), and FoxoTAD (SEQ ID NO: 17) were recently identified as strong transactivators. To assess their functionality in the HumTAP context, the inventors created fusion proteins between each of them and MTERF158-399 (SEQ ID NO: 1) (FIG. 9A).
Upon co-transfection of HEK293 cells with plasmids encoding pEF1a-driven expression of the fusion HumTAPs, a Response Element-driven mCerulean reporter protein, and a mCherry transfection control, all peptides derived from RelA except TA1 mediated high levels of reporter gene expression. […]

[1] = two copies of TAD fused to MTERF158-399

Molecule	reporter gene (mCerulean) expression	reporter (mCerulean) expression	other results
WW: MTERF158-399 fused to the WW domain of WWC1	did not lead to high reporter expression	little to no reporter expression	
FoxoTAD: MTERF158-399 fused to the FOXO-TAD domain of FOXO3 (HEKFPSDLDLDMFNGSLECDMESIIRSELMDADGLDFNFDS; listed as Homo sapiens)	mediated significant mCerulean expression		mCerulean expression, fold lower than the benchmark RelA430-551 TAD: 8.4 fold
ZNF473 KRAB: MTERF158-399 fused to the KRAB domain of ZNF473 (FVTLKDVGMDFTLGDWEQLGLEQGDTFWDTALDNCQDLFLLDPP; listed as Homo sapiens)	did not lead to high reporter expression	little to no reporter expression	
VP64: MTERF158-399 fused to VP64, viral-derived transactivation domain repeats of HHV11 linked by a GS linker (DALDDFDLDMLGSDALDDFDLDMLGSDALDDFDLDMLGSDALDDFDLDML)	lower reporter expression than the benchmark		
NucRecCoAct: MTERF158-399 fused to the Nuc_rec_co-act domain of NCOA3 (EGQSDERALLDQLHTLLSNTDATGLEEIDRALGIPELVNQGQALEPKQ; listed as Homo sapiens)	did not lead to high reporter expression	little to no reporter expression	
RelA342-551: MTERF158-399 fused to RelA342-551, containing all annotated transactivation domains	stronger reporter gene expression		
TA1: MTERF158-399 fused to the TA1 domain of RelA (PGLPNGLLSGDEDFSSIADMDFSALLSQISS; listed as Homo sapiens)	did not activate reporter gene expression significantly	little to no reporter expression	
LMSTEN: MTERF158-399 fused to the LMSTEN domain of MYB (protein, listed as Homo sapiens) EAQNVSSHVPYPVALHVNIVNVPQPAAAAIQRHYNDEDPEKEKRIKELELLLMSTENELKGQQVLPTQNHTCSYPGWHST	mediated significant mCerulean expression		mCerulean expression, fold lower than the benchmark RelA430-551 TAD: 11.3 fold
MTERF1135-399: MTERF1 lacking N-term and first and second Mterf motif, fused to RelA430-551 (protein, listed as Homo sapiens) TPENLSKRWDLWRKIVTSDLEIVNILERSPESFFRSNNNLNLENNIKFLYSVGLTRKCLCRLLTNAPRTFSNSLDLNKQMVEFLQAAGLSLGHNDPADFVRKIIFKNPFILIQSTKRVKANIEFLRSTFNLNSEELLVLICGPGAEILDLSNDYARRSYANIKEKLFSLGCTEEEVQKFVLSYPDVIFLAEKKFNDKIDCLMEENISISQIIENPRVLDSSISTLKSRIKELVNAGCNLSTLNITLLSWSKKRYEAKLKKLSRFA			functionality of synTF with truncated DBD (FIG. 9E): non-functional; output expression / transcriptional activation: complete loss of transcriptional activation
MTERF1104-399: MTERF1 lacking N-term and first Mterf motif, fused to RelA430-551 (protein, listed as Homo sapiens) EQDLKMFLLSKGASKEVIASIISRYPRAITRTPENLSKRWDLWRKIVTSDLEIVNILERSPESFFRSNNNLNLENNIKFLYSVGLTRKCLCRLLTNAPRTFSNSLDLNKQMVEFLQAAGLSLGHNDPADFVRKIIFKNPFILIQSTKRVKANIEFLRSTFNLNSEELLVLICGPGAEILDLSNDYARRSYANIKEKLFSLGCTEEEVQKFVLSYPDVIFLAEKKFNDKIDCLMEENISISQIIENPRVLDSSISTLKSRIKELVNAGCNLSTLNITLLSWSKKRYEAKLKKLSRFA			output expression / transcriptional activation: reduced but not abolished; reporter expression, times less than with MTERF158-399 (FIG. 9E): ~ 1.5 times
SEQ ID NO: 35: MTERF158-399 fused to two copies of RelA521-551 (protein) PGLPNGLLSGDEDFSSIADMDFSALLSQISSPGLPNGLLSGDEDFSSIADMDFSALLSQISS		led to reporter expression	fluorescence relative to only one copy of the respective TAD [1]: 201 times
SEQ ID NO: 33: MTERF158-399 fused to two copies of FOXO3604-644 (protein) HEKFPSDLDLDMFNGSLECDMESIIRSELMDADGLDFNFDSHEKFPSDLDLDMFNGSLECDMESIIRSELMDADGLDFNFDS		enhanced the transcriptional activity of the synthetic TF more than two copies of TA1 or two copies of LMSTEN	mCerulean expression, fold more than the benchmark RelA430-551 TAD (fused to MTERF158-399, FIG. 9C): ~ 2 fold; fluorescence relative to only one copy of the respective TAD [1]: 12 times; mCerulean/reporter expression, fold more than one copy of the TAD (two copies of TAD fused to MTERF158-399, Example 4, FIG. 9C): 20 fold
MTERF173-399: MTERF1 lacking N-term, fused to RelA430-551 (protein, listed as Homo sapiens) EDLLKNLLTMGVDIDMARKRQPGVFHRMITNEQDLKMFLLSKGASKEVIASIISRYPRAITRTPENLSKRWDLWRKIVTSDLEIVNILERSPESFFRSNNNLNLENNIKFLYSVGLTRKCLCRLLTNAPRTFSNSLDLNKQMVEFLQAAGLSLGHNDPADFVRKIIFKNPFILIQSTKRVKANIEFLRSTFNLNSEELLVLICGPGAEILDLSNDYARRSYANIKEKLFSLGCTEEEVQKFVLSYPDVIFLAEKKFNDKIDCLMEENISISQIIENPRVLDSSISTLKSRIKELVNAGCNLSTLNITLLSWSKKRYEAKLKKLSRFA			output expression / transcriptional activation: reduced but not abolished; reporter expression, times less than with MTERF158-399 (FIG. 9E): ~ 1.5 times
RelA361-551: MTERF158-399 fused to RelA361-551 transactivation domain (PIT2 version) (protein, listed as Homo sapiens) DEFPTMVFPSGQISQASALAPAPPQVLPQAPAPAPAPAMVSALAQAPAPVPVLAPGPPQAVAPPAPKPTQAGEGTLSEALLQLQFDDEDLGALLGNSTDPAVFTDLASVDNSEFQQLLNQGIPVAPHTTEPMLMEYPEAITRLVTGAQRPPDPAPAPLGAPGLPNGLLSGDEDFSSIADMDFSALLSQISS	stronger reporter gene expression		
